How the values were obtained:
[1] = molecular target: CON6 gp140CF (artificial HIV-1 group M consensus)
[2] = molecular target: CON6 gp120 (artificial HIV-1 group M consensus); assay: ELISA endpoint titer (3 fold over background) on CON6 gp120

Substance: 2F5 (antibody)
- concentration at endpoint titer [1]: 0.016 µg/mL

Substance: IgG1b12 (antibody)
- concentration at endpoint titer [2]: < 0.002 µg/mL

Substance: 447 (antibody)
- concentration at endpoint titer [2]: < 0.003 µg/mL

Substance: A32 (antibody)
- concentration at endpoint titer [2]: < 0.125 µg/mL
